In patent publication US20250092426, “CAS ENDONUCLEASES AND RELATED METHODS” (Flagship Pioneering Innovations VII, LLC, published 2025):

Biological target: T1, CasEnd-28 (synthetic construct)
T1 chain: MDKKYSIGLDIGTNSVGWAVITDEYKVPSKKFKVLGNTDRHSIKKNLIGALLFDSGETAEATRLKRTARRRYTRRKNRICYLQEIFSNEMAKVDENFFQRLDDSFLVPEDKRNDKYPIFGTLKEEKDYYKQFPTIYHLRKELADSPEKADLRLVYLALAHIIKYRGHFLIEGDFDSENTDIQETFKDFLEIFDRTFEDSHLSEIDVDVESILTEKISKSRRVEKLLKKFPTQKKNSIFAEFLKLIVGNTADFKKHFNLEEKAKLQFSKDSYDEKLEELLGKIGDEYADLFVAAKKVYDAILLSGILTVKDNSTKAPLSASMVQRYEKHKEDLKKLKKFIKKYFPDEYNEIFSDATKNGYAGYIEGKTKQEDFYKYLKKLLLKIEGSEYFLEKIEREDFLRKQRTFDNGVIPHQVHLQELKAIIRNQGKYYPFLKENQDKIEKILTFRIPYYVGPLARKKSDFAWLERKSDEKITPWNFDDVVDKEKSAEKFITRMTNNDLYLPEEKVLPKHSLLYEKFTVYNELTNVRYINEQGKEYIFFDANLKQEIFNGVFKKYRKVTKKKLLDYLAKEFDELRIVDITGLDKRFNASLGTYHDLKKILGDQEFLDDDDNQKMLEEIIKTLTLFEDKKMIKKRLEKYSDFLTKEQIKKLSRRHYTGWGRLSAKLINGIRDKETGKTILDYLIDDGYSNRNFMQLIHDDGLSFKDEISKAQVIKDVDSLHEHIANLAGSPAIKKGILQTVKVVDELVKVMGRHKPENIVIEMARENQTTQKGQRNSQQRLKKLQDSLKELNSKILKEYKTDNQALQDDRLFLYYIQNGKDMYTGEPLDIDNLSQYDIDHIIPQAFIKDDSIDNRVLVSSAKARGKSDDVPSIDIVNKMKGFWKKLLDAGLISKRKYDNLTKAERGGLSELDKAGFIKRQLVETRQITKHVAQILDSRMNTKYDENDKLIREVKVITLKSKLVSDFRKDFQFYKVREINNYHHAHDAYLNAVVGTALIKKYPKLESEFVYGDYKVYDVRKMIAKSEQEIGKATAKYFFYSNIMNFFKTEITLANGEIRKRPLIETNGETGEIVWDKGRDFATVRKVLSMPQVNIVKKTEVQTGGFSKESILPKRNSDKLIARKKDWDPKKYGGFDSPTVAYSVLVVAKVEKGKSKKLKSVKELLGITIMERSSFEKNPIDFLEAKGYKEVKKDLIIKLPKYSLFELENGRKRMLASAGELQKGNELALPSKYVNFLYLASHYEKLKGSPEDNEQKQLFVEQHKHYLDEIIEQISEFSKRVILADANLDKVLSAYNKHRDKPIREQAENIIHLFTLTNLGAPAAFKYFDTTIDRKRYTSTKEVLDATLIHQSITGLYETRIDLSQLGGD
Test: cell_activity; +++; K562, second nick guide SEQ 380; PAM not stated
Procedure: The ability of the candidate endonucleases, including endonucleases 1-38 (CasEnds 1-38) (set forth in Table 1 and SEQ ID NOS: 1-38, respectively), to mediate target nucleic acid editing in cells was assessed by amplicon sequencing of the endogenous hemoglobin subunit beta (eHBB) gene, wherein the percent of amplicons displaying the intended edit is measured. The editing system is comprised of a template RNA (designed to introduce the Single Nucleotide Polymorphism), a second nick guide RNA, and a fusion protein consisting of retroviral reverse transcriptase and the individual subject Cas endonuclease.
Briefly, 250 ng of plasmid DNA encoding the subject fusion protein (containing one of the subject CasEnds), 250 ng each of plasmid DNA encoding the template RNA and the second nick guide RNA were added to 15 μL Lonza SF buffer containing 250,000 K562 cells. Nucleofection was mediated utilizing program FF-120-DA on a Lonza nucleofector. The day of nucleofection was marked as day 0. At day 3, the cells were harvested and subjected to lysis buffer treatment overnight. Genomic DNA was extracted and used for targeted amplicon sequencing to evaluate the performance of each Cas endonucleases based on their percent edit efficiencies.

B1: HBB template RNA ; HBB protospacer (ssRNA ; dsDNA)
RNA: CAUGGUGCACCUGACUCCUGGUUUUAGAGCUAGAAAUAGCAAGUUAAAAUAAGGCUAGUCCGUUAUCAACUUGAAAAAGUGGCACCGAGUCGGUGCACGGCAGACUUCUCUGCCGGAGUCAGGUGC
DNA 1: CATGGTGCACCTGACTCCTG
DNA 2: CAGGAGTCAGGTGCACCATG
activity: ≥ 100 % of reference
